From paper PMC11995519, “Structural insights into the human NuA4/TIP60 acetyltransferase and chromatin remodeling complex” (Science (New York, N.Y.), 2024)

Biological target: T1, transformation/transcription domain-associated protein (TRRAP) (human (endogenous in K562), UniProt Q9Y4A5 1-3859)
T1 construct: transformation/transcription domain-associated protein (TRRAP), human; also called TRRAP module; source: endogenous, K562 extract; co-purified with tagged EP400 constructs
Test: cryo-EM structure; TRRAP-EP400Cter purified by the tagged EP400 truncation 2188-3159, glutaraldehyde cross-linked; 3.4 Å
Settings: both partners purified

T1 sequence (Q9Y4A5 whole entry, the tested form may be a part): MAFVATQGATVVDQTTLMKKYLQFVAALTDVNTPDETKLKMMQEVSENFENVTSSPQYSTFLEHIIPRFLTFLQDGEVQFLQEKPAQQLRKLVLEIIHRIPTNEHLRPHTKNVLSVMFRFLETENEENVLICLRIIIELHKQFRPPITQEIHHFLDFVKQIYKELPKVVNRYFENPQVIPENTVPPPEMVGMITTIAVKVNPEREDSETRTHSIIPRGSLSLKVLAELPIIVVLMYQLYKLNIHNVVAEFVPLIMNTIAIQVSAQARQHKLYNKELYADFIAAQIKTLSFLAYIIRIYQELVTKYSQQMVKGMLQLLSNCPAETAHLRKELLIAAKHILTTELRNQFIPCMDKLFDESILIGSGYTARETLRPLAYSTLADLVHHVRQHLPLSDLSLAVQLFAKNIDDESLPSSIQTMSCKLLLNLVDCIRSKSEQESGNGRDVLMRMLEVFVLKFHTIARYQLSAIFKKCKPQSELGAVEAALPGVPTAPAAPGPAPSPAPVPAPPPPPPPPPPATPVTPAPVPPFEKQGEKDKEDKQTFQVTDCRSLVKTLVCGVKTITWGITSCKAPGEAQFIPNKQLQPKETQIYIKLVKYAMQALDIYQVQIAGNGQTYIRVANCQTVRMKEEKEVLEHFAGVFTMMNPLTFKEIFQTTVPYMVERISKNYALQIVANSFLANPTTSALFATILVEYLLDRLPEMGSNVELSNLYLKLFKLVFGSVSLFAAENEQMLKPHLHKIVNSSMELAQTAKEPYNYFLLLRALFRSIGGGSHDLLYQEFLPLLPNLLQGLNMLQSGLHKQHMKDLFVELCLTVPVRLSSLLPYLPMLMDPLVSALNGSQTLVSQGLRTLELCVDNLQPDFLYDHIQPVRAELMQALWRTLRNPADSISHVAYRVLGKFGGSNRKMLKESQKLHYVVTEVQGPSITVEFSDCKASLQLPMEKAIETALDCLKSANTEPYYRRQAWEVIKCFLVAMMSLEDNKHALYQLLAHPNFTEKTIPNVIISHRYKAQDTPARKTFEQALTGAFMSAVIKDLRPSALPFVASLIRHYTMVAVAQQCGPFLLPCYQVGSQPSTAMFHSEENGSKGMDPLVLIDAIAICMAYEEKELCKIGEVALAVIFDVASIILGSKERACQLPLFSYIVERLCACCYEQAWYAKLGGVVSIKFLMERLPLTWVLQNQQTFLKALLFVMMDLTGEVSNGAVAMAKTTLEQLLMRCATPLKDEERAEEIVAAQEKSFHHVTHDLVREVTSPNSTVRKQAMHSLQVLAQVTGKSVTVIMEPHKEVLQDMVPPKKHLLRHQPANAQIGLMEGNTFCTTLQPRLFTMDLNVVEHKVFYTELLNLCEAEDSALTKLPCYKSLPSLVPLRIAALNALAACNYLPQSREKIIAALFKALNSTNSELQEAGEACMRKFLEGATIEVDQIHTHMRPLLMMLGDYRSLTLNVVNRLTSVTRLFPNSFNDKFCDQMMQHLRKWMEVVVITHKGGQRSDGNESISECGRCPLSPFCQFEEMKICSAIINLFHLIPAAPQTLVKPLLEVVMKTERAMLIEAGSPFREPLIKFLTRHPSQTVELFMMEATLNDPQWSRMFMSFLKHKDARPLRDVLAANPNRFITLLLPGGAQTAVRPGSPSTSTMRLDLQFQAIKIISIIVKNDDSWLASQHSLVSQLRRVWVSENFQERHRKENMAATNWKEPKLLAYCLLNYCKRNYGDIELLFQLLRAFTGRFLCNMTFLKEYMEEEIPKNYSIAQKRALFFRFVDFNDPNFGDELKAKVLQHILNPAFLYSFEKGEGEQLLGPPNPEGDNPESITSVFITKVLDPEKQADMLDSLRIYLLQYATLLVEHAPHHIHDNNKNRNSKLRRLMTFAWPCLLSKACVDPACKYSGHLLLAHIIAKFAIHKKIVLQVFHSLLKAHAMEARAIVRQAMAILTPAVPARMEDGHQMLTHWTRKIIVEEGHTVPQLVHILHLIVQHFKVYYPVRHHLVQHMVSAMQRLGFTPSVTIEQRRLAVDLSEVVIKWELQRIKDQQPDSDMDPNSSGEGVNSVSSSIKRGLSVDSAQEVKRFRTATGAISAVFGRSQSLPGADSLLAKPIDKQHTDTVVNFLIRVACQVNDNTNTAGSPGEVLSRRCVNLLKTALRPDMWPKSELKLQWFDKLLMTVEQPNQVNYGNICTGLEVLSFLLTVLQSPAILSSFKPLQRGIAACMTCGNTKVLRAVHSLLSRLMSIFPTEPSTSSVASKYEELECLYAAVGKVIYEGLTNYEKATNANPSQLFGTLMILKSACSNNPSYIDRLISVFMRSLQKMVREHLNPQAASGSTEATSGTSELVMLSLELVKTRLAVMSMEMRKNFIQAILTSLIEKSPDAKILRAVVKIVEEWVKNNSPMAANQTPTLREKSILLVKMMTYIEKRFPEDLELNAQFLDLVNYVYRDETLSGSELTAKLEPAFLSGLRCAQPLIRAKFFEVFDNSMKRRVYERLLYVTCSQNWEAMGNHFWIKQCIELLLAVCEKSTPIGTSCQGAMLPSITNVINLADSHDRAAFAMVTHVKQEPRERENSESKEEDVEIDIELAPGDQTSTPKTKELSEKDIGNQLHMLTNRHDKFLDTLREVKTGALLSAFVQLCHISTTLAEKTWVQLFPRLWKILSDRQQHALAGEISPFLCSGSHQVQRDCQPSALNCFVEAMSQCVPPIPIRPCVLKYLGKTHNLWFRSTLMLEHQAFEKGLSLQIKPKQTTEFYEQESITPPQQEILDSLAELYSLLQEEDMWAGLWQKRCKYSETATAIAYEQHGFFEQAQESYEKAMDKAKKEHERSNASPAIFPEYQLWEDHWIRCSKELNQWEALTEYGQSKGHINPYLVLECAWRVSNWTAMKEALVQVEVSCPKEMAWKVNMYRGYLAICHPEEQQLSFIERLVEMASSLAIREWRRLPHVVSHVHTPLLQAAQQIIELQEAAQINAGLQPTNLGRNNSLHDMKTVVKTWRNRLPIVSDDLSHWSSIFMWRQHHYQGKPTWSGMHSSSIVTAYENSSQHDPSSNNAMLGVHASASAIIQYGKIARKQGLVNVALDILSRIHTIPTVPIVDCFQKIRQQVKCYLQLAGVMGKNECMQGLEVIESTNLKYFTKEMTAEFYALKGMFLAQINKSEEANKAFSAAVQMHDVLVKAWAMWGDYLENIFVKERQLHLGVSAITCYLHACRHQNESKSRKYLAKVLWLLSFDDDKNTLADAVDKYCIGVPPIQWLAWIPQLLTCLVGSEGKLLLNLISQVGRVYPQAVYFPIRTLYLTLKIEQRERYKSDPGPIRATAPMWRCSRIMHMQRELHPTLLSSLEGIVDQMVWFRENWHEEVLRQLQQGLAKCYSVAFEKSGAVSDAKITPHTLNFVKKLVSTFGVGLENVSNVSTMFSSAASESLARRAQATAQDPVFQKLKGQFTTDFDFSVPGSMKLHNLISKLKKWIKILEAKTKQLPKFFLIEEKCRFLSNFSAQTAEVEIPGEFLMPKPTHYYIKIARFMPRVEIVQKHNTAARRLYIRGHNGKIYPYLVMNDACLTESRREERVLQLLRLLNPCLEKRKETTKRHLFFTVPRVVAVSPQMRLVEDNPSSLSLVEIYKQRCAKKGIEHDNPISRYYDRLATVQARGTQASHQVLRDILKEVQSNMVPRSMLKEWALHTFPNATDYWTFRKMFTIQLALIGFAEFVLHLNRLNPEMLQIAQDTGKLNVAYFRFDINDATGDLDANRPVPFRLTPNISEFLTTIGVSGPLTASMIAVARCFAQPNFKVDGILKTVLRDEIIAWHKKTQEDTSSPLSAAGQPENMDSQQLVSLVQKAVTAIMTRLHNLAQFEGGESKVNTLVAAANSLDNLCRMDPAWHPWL

B1: tagged truncation of EP400 containing just the C terminus after the ATPase domain (amino acid 2188 to 3159) (domain or fragment, human, UniProt Q96L91 2188-3159, looked up)
chain: AVMTAVRAWEFWNLKTLQEREARLRLEQEEAELLTYTREDAYSMEYVYEDVDGQTEVMPLWTPPTPPQDDSDIYLDSVMCLMYEATPIPEAKLPPVYVRKERKRHKTDPSAAGRKKKQRHGEAVVPPRSLFDRATPGLLKIRREGKEQKKNILLKQQVPFAKPLPTFAKPTAEPGQDNPEWLISEDWALLQAVKQLLELPLNLTIVSPAHTPNWDLVSDVVNSCSRIYRSSKQCRNRYENVIIPREEGKSKNNRPLRTSQIYAQDENATHTQLYTSHFDLMKMTAGKRSPPIKPLLGMNPFQKNPKHASVLAESGINYDKPLPPIQVASLRAERIAKEKKALADQQKAQQPAVAQPPPPQPQPPPPPQQPPPPLPQPQAAGSQPPAGPPAVQPQPQPQPQTQPQPVQAPAKAQPAITTGGSAAVLAGTIKTSVTGTSMPTGAVSGNVIVNTIAGVPAATFQSINKRLASPVAPGALTTPGGSAPAQVVHTQPPPRAVGSPATATPDLVSMATTQGVRAVTSVTASAVVTTNLTPVQTPARSLVPQVSQATGVQLPGKTITPAHFQLLRQQQQQQQQQQQQQQQQQQQQQQQQQQQQQTTTTSQVQVPQIQGQAQSPAQIKAVGKLTPEHLIKMQKQKLQMPPQPPPPQAQSAPPQPTAQVQVQTSQPPQQQSPQLTTVTAPRPGALLTGTTVANLQVARLTRVPTSQLQAQGQMQTQAPQPAQVALAKPPVVSVPAAVVSSPGVTTLPMNVAGISVAIGQPQKAAGQTVVAQPVHMQQLLKLKQQAVQQQKAIQPQAAQGPAAVQQKITAQQITTPGAQQKVAYAAQPALKTQFLTTPISQAQKLAGAQQVQTQIQVAKLPQVVQQQTPVASIQQVASASQQASPQTVALTQATAAGQQVQMIPAVTATAQVVQQKLIQQQVVTTASAPLQTPGAPNPAQVPASSDSPSQQPKLQMRVPAVRLKTPTKPPCQ
notes: 137 residues (SANT and HD domains) are resolved; also called EP400Cter; C-terminal segment of EP400; source: new cell line expressing the tagged truncation
binding result: binds
